# Data from the supplement of paper PMC10567573.
# B1: ZNF511 (parent)
# chain: YEHHYHTLHGNVCSFCKRAFPSGH
# Variants of: B1
# Experiment: protein stability index of a GFP-peptide fusion (GPS, HEK-293T) (PSI 1-6); higher = more stable
# Conditions: c terminus: a fixed tail appended
# 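Also: lentivirally expressed fusions sorted by FACS into six bins by GFP to DsRed ratio, PSI derived from sequencing read proportions per bin multiplied by bin number.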
row,Variant,protein stability index
1,YEHHYHTLHGNVCSFCKRRFPSGH [A19R],2.37
2,YEHHYHTLHGNVCSFCKRHFPSGH [A19H],2.85
3,YEHHYHTLHGNVCSFCKRSFPSGH [A19S],2.28
4,YEHHYHTLHGNVCSFCKRCFPSGH [A19C],2.19
5,YEHHYHTLHGNVCSFCKRWFPSGH [A19W],2.25
6,YEHHYHTLHGNVCSFCKRPFPSGH [A19P],1.89
7,YEHHYHTLHGNVCSFCKRLFPSGH [A19L],2.36
8,YEHHYHTLHGNVCSFCKRDFPSGH [A19D],2.42
9,YEHHYHTLHGNVCSFCKRFFPSGH [A19F],2.84
10,YEHHYHTLHGNVCSFCKRAFPSVH [G23V],1.61
11,YEHHYHTLHGNVCSFCKRAFPSNH [G23N],2.51
12,YEHHYHTLHGNVCSFCKRAFPSKH [G23K],2.01
13,YEHHYHTLHGNVCSFCKRAFPSIH [G23I],1.86
14,YEHHYHTLHGNVCSFCKRAFPSLH [G23L],1.63
15,YEHHYHTLHGNVCSFCKRAFPSSH [G23S],2.7
16,YEHHYHTLHGNVCSFCKRAFPSHH [G23H],1.38
17,YEHHYHTLHGNVCSFCKRAFPSYH [G23Y],1.97
18,YEHHYHTLHGNVCSFCKRAFPSTH [G23T],2.16
19,YEHHYHTLHGNVCSFCKRAFPSFH [G23F],1.83
20,YEHHYHTLHGNVCSFCKRAFPSPH [G23P],2.27
21,YEHHYHTLHGNVCSFCKRAFPSDH [G23D],2.31
22,YEHHYHTLHGNVCSFCKRAFPSEH [G23E],1.86
23,YEHHYHTLHGNVCSFCKRAFPSMH [G23M],1.92
24,YEHHYHTLHGNVCSFCKRAFPSCH [G23C],2.33

row,Variant,protein stability index
1,YEHHYHTLHGNVCSFCKRAFPSQH [G23Q],1.93
2,YEHHYHTLHGNVCSFCKRAFPSWH [G23W],1.62
3,YEHHYHTLHGNVCSFCKRAFPSRH [G23R],1.98
4,YEHHYHTLHGNVCSFCKRAFPSAH [G23A],2.1
5,YEHHYHTLHGNVCSFCKRAGPSGH [F20G],2.82
6,YEHHYHTLHGNVCSFCKRACPSGH [F20C],2.55
7,YEHHYHTLHGNVCSFCKRANPSGH [F20N],3.13
8,YEHHYHTLHGNVCSFCKRAEPSGH [F20E],2.4
9,YEHHYHTLHGNVCSFCKRALPSGH [F20L],2.27
10,YEHHYHTLHGNVCSFCKRADPSGH [F20D],3.27
11,YEHHYHTLHGNVCSFCKRARPSGH [F20R],2.12
12,YEHHYHTLHGNVCSFCKRAVPSGH [F20V],2.58
13,YEHHYHTLHGNVCSFCKRATPSGH [F20T],2.68
14,YEHHYHTLHGNVCSFCKRAYPSGH [F20Y],2.25
15,YEHHYHTLHGNVCSFCKRAPPSGH [F20P],2.34
16,YEHHYHTLHGNVCSFCKRASPSGH [F20S],2.96
17,YEHHYHTLHGNVCSFCKRAMPSGH [F20M],2.38
18,YEHHYHTLHGNVCSFCKRAKPSGH [F20K],2.64
19,YEHHYHTLHGNVCSFCKRAHPSGH [F20H],3.37
20,YEHHYHTLHGNVCSFCKRAIPSGH [F20I],2.23
21,YEHHYHTLHGNVCSFCKRAQPSGH [F20Q],2.37
22,YEHHYHTLHGNVCSFCKRAWPSGH [F20W],2.42
23,YEHHYHTLHGNVCSFCKRAAPSGH [F20A],2.41
24,YEHHYHTLHGNVCSFCKRAFPSGN [H24N],2.39

row,Variant,protein stability index
1,YEHHYHTLHGNVCSFCKRAFPSGL [H24L],2.02
2,YEHHYHTLHGNVCSFCKRAFPSGS [H24S],2.46
3,YEHHYHTLHGNVCSFCKRAFPSGP [H24P],2.08
4,YEHHYHTLHGNVCSFCKRAFPSGG [H24G],2.09
5,YEHHYHTLHGNVCSFCKRAFPSGC [H24C],2.07
6,YEHHYHTLHGNVCSFCKRAFPSGW [H24W],2.43
7,YEHHYHTLHGNVCSFCKRAFPSGE [H24E],2.57
8,YEHHYHTLHGNVCSFCKRAFPSGY [H24Y],1.65
9,YEHHYHTLHGNVCSFCKRAFPSGD [H24D],2.35
10,YEHHYHTLHGNVCSFCKRAFPSGM [H24M],2.17
11,YEHHYHTLHGNVCSFCKRAFPSGI [H24I],1.78
12,YEHHYHTLHGNVCSFCKRAFPSGV [H24V],2.25
13,YEHHYHTLHGNVCSFCKRAFPSGT [H24T],2.24
14,YEHHYHTLHGNVCSFCKRAFPSGF [H24F],2.5
15,YEHHYHTLHGNVCSFCKRAFPSGK [H24K],1.57
16,YEHHYHTLHGNVCSFCKRAFPSGR [H24R],2.08
17,YEHHYHTLHGNVCSFCKRAFPSGA [H24A],2.13
18,YEHHYHTLHGNVCSFCKRAFPSGQ [H24Q],2.08
19,YEHHYHTLHGNVCSFCKRAFWSGH [P21W],1.61
20,YEHHYHTLHGNVCSFCKRAFVSGH [P21V],2.34
21,YEHHYHTLHGNVCSFCKRAFHSGH [P21H],2.32
22,YEHHYHTLHGNVCSFCKRAFQSGH [P21Q],1.97
23,YEHHYHTLHGNVCSFCKRAFMSGH [P21M],2.57
24,YEHHYHTLHGNVCSFCKRAFFSGH [P21F],2.13

row,Variant,protein stability index
1,YEHHYHTLHGNVCSFCKRAFGSGH [P21G],2.31
2,YEHHYHTLHGNVCSFCKRAFISGH [P21I],2.29
3,YEHHYHTLHGNVCSFCKRAFYSGH [P21Y],1.77
4,YEHHYHTLHGNVCSFCKRAFKSGH [P21K],1.9
5,YEHHYHTLHGNVCSFCKRAFESGH [P21E],2.2
6,YEHHYHTLHGNVCSFCKRAFSSGH [P21S],2.48
7,YEHHYHTLHGNVCSFCKRAFASGH [P21A],2.6
8,YEHHYHTLHGNVCSFCKRAFLSGH [P21L],2.36
9,YEHHYHTLHGNVCSFCKRAFCSGH [P21C],3.6
10,YEHHYHTLHGNVCSFCKRAFDSGH [P21D],2.88
11,YEHHYHTLHGNVCSFCKRAFTSGH [P21T],2.38
12,YEHHYHTLHGNVCSFCKRAFNSGH [P21N],1.97
13,YEHHYHTLHGNVCSFCKRAFRSGH [P21R],1.91
14,YEHHYHTLHGNVCSFCKPAFPSGH [R18P],2.87
15,YEHHYHTLHGNVCSFCKQAFPSGH [R18Q],1.53
16,YEHHYHTLHGNVCSFCKYAFPSGH [R18Y],2.24
17,YEHHYHTLHGNVCSFCKNAFPSGH [R18N],2.37
18,YEHHYHTLHGNVCSFCKTAFPSGH [R18T],2.29
19,YEHHYHTLHGNVCSFCKSAFPSGH [R18S],2.26
20,YEHHYHTLHGNVCSFCKWAFPSGH [R18W],1.79
21,YEHHYHTLHGNVCSFCKMAFPSGH [R18M],1.96
22,YEHHYHTLHGNVCSFCKVAFPSGH [R18V],1.73
